Reference: publication PMC5921574 (Molecular Biology of the Cell, 2018)

Molecular target: actin filaments (F-actin) from rabbit skeletal muscle (rabbit, UniProt P68135 1-377)
Test: co-sedimentation

B1: LEV-11A(E234K), recombinant (natural protein)
chain: MASDAIKKKMQAMKIEKDNALDRADAAEEKVRQITEKLERVEEELRDTQKKMTQTGDDLDKAQEDLSAATSKLEEKEKTVQEAEAEVASLNRRMTLLEEELERAEERLKIATEKLEEATHNVDESERVRKVMENRSLQDEERANTVEAQLKEAQLLAEEADRKYDEVARKLAMVEADLERAEERAEAGENKIVELEEELRVVGNNLKSLEVSEEKALQREDSYEEQIRTVSSRLKKAETRAEFAERSVQKLQKEVDRLEDELVHEKERYKTISEELDSTFQELSGY
  fold decrease in affinity against wild-type LEV-11A: ~3 fold
